# Data from the domain aggregation screens of Martell et al. (2025).
# Experiment: soluble fraction after stress (log2 fold change); higher = more stays soluble; pooled small domains, quantitative proteomics
# Conditions: stress: 75 degC
# 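Further: 20 min heating vs room temperature control held 20 min.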
row,Sequence,soluble fraction (log2)
1,HMTYVSVSNYIGTNVDKAKGELESQGLVVLLEEQKTEDKSQDGMVLKQTIEGGTKVSSGSRITLIYGRYT,-0.0441
2,HMVADEGELLAIAREVVAANPKVFEDWKAGKQSAAQWFVGQIMKRTRGRANPQLALKLVTQALEEHAR,0.0384
3,HMVAEKSKIEMAIDSINKLAKELADSGVAKKTISDIIKSVSGSANYNKITDFEVATDVYKELVALKNKEDT,0.223
4,HMVAESGLPPAFRSTWRHIMQTRGAQLDVLAMRTGTDAASLQKQLHAMELGGWVRRMPGGWYVPLK,-1.78
5,HMVAFYATPKERGIYDDAETYREGDIVSIADGSRWIYVNPTATAGNDPADGSVYWERMSGAATGP,0.116
6,HMVAGHLQEKKGYFYMVLTYRDHEGKRKSKWLPTGLTIKGNKKRAQDLLQDARKNFVPDIPT,-2.37
7,HMVAGHLQEKNGYFYIVLNYTNHEGKRKSKWITTGLTVKGNKKRAQDLLQEARKTFVPDIPT,-2.88
8,HMVAPKDIVMPSFVGKKYTDVVNTPNSSYTFEFKKDEKNSSDYAVGFIMDQKPKAGETVKSNATVTLIVSK,0.0603
9,HMVAPNSEATTKLIIEKTKYANESPAILMGFKATATMLMAKHVVLPTSKYAYFNEGRALLEKAIK,0.154
10,HMVAREAYTTQNLTDVFSISRQAVEKRAKREGWQSVPRKGRGGGKLWVVSSMPAETRDLLASLLLRK,-0.608
11,HMVDALYGQGARVMRDFSEGSGIVKLDNGETWTGRLSPAASGASLYVGDRVIVTRIDGAIAEVTPP,0.00352
12,HMVDDNFGLGEVTDQNYLTVLGRALDLIGWTDEQADSYSLKTFGVPHWDELGRSQAEKLVAHLIGLLKEQM,0.0834
13,HMVDIEQAEFLSRQFDLLLARLDDPTIEWQDIADIRSEYTGENEHRDTIRKGSKLFYEYLQAGWIKN,-0.678
14,HMVDISLSDRELEVLRLLAMGLSNADISRRLYLSEGTIRNYMSGIFSKLNVSDRTQAVVIALREGLVNL,-1.56
15,HMVDPAEASKRAREYLDALPADDLKDVIRQFSATLAEGSVVLGYFQRSGLKSKVVKTALEQFVASTILSK,-1.16
16,HMVDPAFLAWQQKPENTWFGTDRRKTALAIAIAEEIRNDPANSNLVGAAFYARVAEETEETLN,-0.546
17,HMVDPWLEQVHRASAAYATAHGSARIPTTHPDLGWKVVRVRQRHRKGLLSDEWVAKFEALPGWTWEPK,-1.52
18,HMVDQAFQTQLKNIQARTGKNLDELYAFIRASGLVKHGEIRDLAKRELSLGHGDANTLAKFYLESLAAAA,0.0377
19,HMVDQKLIQASAEHSGIRIDRFLSEQLPEHSRSYIQKLIKDGQVSIGGKAVKSNYKIAGTEEISLLIPDQ,-0.0516
20,HMVDTSDLPAIVEKVFADNPEQVNDILNGKDRVKGFLVGQIMKATRGQAPPDEVNKLIDATLEKMKAA,0.239
21,HMVDYIGRRGVMLSTVSEEKMGNAEVVIDGNSYNIYVKSLDGSTIAYHQEILIINKSKDNNYFLVQIY,-2.81
22,HMVEAIDQALIEKQIQAVLQENSAAVKKYQAGKTEVLAFLIGQSMRKIAKKVDANLVKNILLEQLKNK,0.228
23,HMVEDFSEVLLQYIREQGGAIALNDKTDAGVIYDTFGVSKKTFKKAVGDLYKKRLIVLGDEGIRLA,-0.757
24,HMVEIGENIKKLRKAKRMTQKEVANQLNVTPQTISKWERNISYPDLDMLVKLSQLFHISTDALL,-0.553
25,HMVELNDNEKIVYDILKETEKIHIDELTAKVQLTQSILSGALVQMEMKGMIVSLPGKMYKLL,-1.65
26,HMVELRDGSLPLARGSVGDLVAEVQRKLGVAADGIFGPQTERAVRAFQARAGLASDGIVGPLTWSALFGA,-0.516
27,HMVELVKVPALQGETVDEAIADIKDAGLEPGQVRYVESDLPKDTVTYQSVDAGEQVKAGTVINLQASKGP,0.765
28,HMVEMSNMELVREQYFQNLIYNVGDWVKDSKTEITGEVVKRGTNYLTIVQEDFTLHKVWLEDAESME,-0.511
29,HMVEPDELTEREREVLQFVARGLSNKEIGAALALSPHTIKAHLRSILDKLHLRSRAEAAAWAVRSGLS,-0.344
30,HMVEPLIVRNFSINYADIDKLETKIKDYISNSDKSGVNRGRVTSDTRTNMLIVTETASKLAQVEQLLKALD,-0.279
